To fix the notation:
T1: mouse OX40 on transfected CHO cells (mouse, UniProt P47741 20-272)
T1 construct: also called mOX40
T1 sequence: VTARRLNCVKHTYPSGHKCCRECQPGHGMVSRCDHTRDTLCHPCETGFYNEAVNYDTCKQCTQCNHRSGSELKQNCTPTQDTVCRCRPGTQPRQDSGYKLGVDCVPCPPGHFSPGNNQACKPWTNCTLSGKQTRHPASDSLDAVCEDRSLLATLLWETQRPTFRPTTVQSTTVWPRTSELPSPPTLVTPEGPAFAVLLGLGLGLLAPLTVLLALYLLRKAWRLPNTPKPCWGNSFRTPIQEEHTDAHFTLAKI

T2: Human OX40 protein (hOX40-His) (human, UniProt P43489 29-214)
T2 construct: Soluble analyte in the SPR assay; also called His-tagged human OX40; not shown: His tag
T2 sequence: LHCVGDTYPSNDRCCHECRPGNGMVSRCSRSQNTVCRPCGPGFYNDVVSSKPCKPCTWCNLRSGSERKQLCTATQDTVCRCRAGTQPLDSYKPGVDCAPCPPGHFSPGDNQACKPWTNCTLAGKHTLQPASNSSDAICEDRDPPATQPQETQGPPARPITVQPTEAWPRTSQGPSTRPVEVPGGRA

B1: mouse anti-hOX40 antibody 07-9H3 (antibody, V domains shown)
VH: QVQLKQSGPGLVQPSQSLSITCTVSGFSLTSYGVLWVRQPPGKGLEWLGVIWSGGSTDYNAAFISRLSISKDNSKSQVFFKMNSLQADDTAIYYCAREEFGYWGQGTLVTVSA
VL: DIQMTQTTSSLSASLGDRVTISCRASQDINNYLNWYQQKPDGTVKLLIYYTSRLHSGVPSRFSGSGSGTDYSLTISNLEQEDIATYFCQQTNTLPWTFGGGTKLEIK
notes: Mouse IgG purified from ascites fluid
B2: 9H3-H2K2-IgG1 (antibody, V domains shown)
VH: QVQLVESGGGVVQPGRSLRISCAVSGFSLTSYGVLWVRQAPGKGLEWVAVIWSGGSTDYNAAFISRLTISRDNSKSTVYFQMNSLRAEDTAVYYCAREEFGYWGQGTLVTVSS
VL: DIQMTQSPSSLSASVGDRVTITCRASQDINNYLNWYQQKPGGAVKLLIYYTSRLHSGVPSRFSGSGSGTDFTLTISSLQPEDIATYYCQQTNTLPWTFGGGTKLEIKR
notes: Humanized, with human IgG1 constant domains; also called 9H3 humanized antibody H2K2
B3: 9H3-H2K1-IgG1 (antibody, V domains shown)
VH: B2 VH
VL: B2 VL with S56T, I106V
notes: Humanized, with human IgG1 constant domains (CL, CH1, CH2, CH3); also called 9H3 humanized antibody H2K1
B4: 9H3-H3K2-IgG1 (antibody, V domains shown)
VH: B2 VH with V48L, A49G
VL: B2 VL
notes: Humanized, with human IgG1 constant domains; also called 9H3 humanized antibody H3K2
B5: 9H3-H3K1-IgG1 (antibody, V domains shown)
VH: B2 VH with V48L, A49G
VL: B2 VL with S56T, I106V
notes: Humanized, with human IgG1 constant domains; also called 9H3 humanized antibody H3K1
B6: 9H3-H2K3-IgG1 (antibody, V domains shown)
VH: B2 VH
VL: B2 VL with F71Y, Y87F
notes: Humanized, with human IgG1 constant domains; also called 9H3 humanized antibody H2K3
B7: 9H3-H3K3-IgG1 (antibody, V domains shown)
VH: B2 VH with V48L, A49G
VL: B2 VL with F71Y, Y87F
notes: Humanized, with human IgG1 constant domains; also called 9H3 humanized antibody H3K3
B8: 9A4-mHvKv-IgG1 (antibody, V domains shown)
VH: EVQLQQFGAELVKPGASVKISCKASGYTFTDYNMDWVKQSHGKSLEWIGDINPNYDSTSYNQKFKGKATLTVDKSSSTAYMELRSLTSEDTAVYYCARGGYGNYVDYFDYWGQGTTLTVSS
VL: NIVMTQSPKSMSMSVGERVTLSCKASENVVTYVSWYQQKPEQSPKLLIYGASNRYTGVPDRFTGSGSATDFTLTISSVQAEDLADYHCGQSYSYPYTFGGGTKLEIK
notes: Chimeric: mouse 9A4 variable domains with human IgG1 constant domains; also called 9A4 chimeric antibody
B9: 9A4 (mouse antibody) (antibody, V domains shown)
VH: B8 VH
VL: B8 VL
notes: also called 07-9A4
B10: 9H3-mHvKv-IgG1 (antibody, V domains shown)
VH: B1 VH
VL: B1 VL
notes: Chimeric: mouse 9H3 variable domains with human IgG1 constant domains (CL, CH1, CH2, CH3); also called 9H3 chimeric antibody; chimeric anti-hOX40 antibody
B11: 5D10-mHvKv-IgG1 (antibody, V domains shown)
VH: QVQLKESGPGLVAPSQSLSITCTVSGFSLTSYGVHWIRQPPGKGLEWLGVIWAGGNTNYNSALMSRLSISKDNSKSQVFLKMNSLQTDDTAMYNCASYDGYYGWFAYWGQGTLVTVSV
VL: B1 VL with N30S, N31Y, T91G, N92H
notes: Chimeric: mouse 5D10 variable domains with human IgG1 constant domains; also called 5D10 chimeric antibody
B12: 5C1-mHvKv-IgG1 (antibody, V domains shown)
VH: EVQLQQSGTVLARPGASVKMSCKASGYSFTSYWMHWVKQRPGQGLEWIGTIYPGNSDTSNNQKFKGKAKLTAVTSASTAYMELSSLTNEDSAVYYCTTFYYRYEDYYAMDYWGQGTSVTVSS
VL: DIVMTQSHKFMSTSVGDRVSITCKASQDVNTAVAWYQQKPGQSPKLLIYSASYRYTGVPDRFTGSGSGTDFTFTISSVQAEDLAVYYCQQHYSTPFTFGSGTKLEIK
notes: Chimeric: mouse 5C1 variable domains with human IgG1 constant domains; also called 5C1 chimeric antibody

Residue numbers refer to the chain shown, from its start.

The first assay has as its target T1, mouse OX40 on transfected CHO cells. The experiment in a line: flow cytometry, CHO-mOX40 cells; anti-mIgG Fc-FITC against SSC-H. How it is done:
25 ul CHO cells were added to each well. 25 ul purified anti-hOX40 antibodies (1 ug/ml) (9H3 or “07-9H3”) were added to each well and were incubated at 4° C. for 30 minutes.
After being washed with PBS (1200 rmp, 5 min) twice, 50 ul of anti-mouse IgG Fc antibody fluorescein isothiocyanate conjugate (anti-mIgG Fc-FITC) with 1:500 dilution was added into each well and was incubated at 4° C. for 30 minutes, followed by PBS wash (1200 rmp, 5 min). The signals for FITC were determined by flow cytometry.
For the molecule B1, the binding result is recorded as “no binding”.

In a further assay the target is T2, Human OX40 protein (hOX40-His). Description: SPR, Biacore T200, antibody captured on Protein A chip, hOX40-His as analyte, 1:1 Langmuir fit. How it is done: The antibodies were tested for hOX40 binding. The affinity of an antibody was determined by surface plasmon resonance (Biacore T200 biosensor, Biacore, INC, Piscataway N.J.) equipped with pre-immobilized Protein A sensor chips.
Anti-hOX40 antibody 9H3-mHvKv-IgG1 (1 μg/mL) were injected into Biacore T200 biosensor at 10 μL/min for 25 seconds to achieve to a desired protein density (about 112 response units (RU)). […] Dissociation was monitored for 300 seconds. The chip was regenerated after the last injection of each titration with Glycine (pH 2.0, 30 μL/min for 12 seconds).
The same method with necessary appropriate adjustments for parameters (e.g., concentrations of the antibodies) were performed for all other tested antibodies.
The molecule B2 came in with a Kd of 3.84 nM, a koff of 0.00087 s⁻¹ and an on-rate (kon) of 227000 M⁻¹ s⁻¹.

B3 showed a dissociation constant Kd of 3.35 nM, a koff of 0.000748 s⁻¹ and a kon of 223000 M⁻¹ s⁻¹.

In turn, B4 yielded a Kd of 3.34 nM, a koff of 0.000642 s⁻¹ and a kon of 192000 M⁻¹ s⁻¹.

In the case of B5, the Kd came out at 2.49 nM, the koff was 0.000606 s⁻¹ and the kon was 244000 M⁻¹ s⁻¹.

Molecule B6 showed a Kd of 1.55 nM, an off-rate constant (koff) of 0.000393 s⁻¹ and a kon of 254000 M⁻¹ s⁻¹.

Turning to B7, the Kd is 1.92 nM, the koff stood at 0.000451 s⁻¹ and the kon was found to be 235000 M⁻¹ s⁻¹.

For B8, the affinity, expressed as Kd, was 55.3 nM; the koff amounted to 0.00669 s⁻¹; the kon is 121000 M⁻¹ s⁻¹.

B9 came in with a Kd of 21.6 nM, a koff of 0.00192 s⁻¹ and a kon of 89100 M⁻¹ s⁻¹.

B10: the dissociation constant Kd amounted to 2.31 nM, the koff worked out at 0.000594 s⁻¹ and the association rate constant (kon) was determined as 258000 M⁻¹ s⁻¹.

B11 showed a Kd of 46.5 nM, a koff of 0.0147 s⁻¹ and an association rate constant (kon) of 317000 M⁻¹ s⁻¹.

B12 displayed a Kd of 29.8 nM, an off-rate constant (koff) of 0.00163 s⁻¹ and a kon of 54900 M⁻¹ s⁻¹.

For a further assay, the target named is chimeric (mouse and human) OX40 on transfected CHO cells (chimeric (mouse and human)). Description: flow cytometry, CHO-chiOX40 cells; antibody at 1 ug/ml; anti-mIgG Fc-FITC (x axis) against SSC-H; NC panel of the same cells 2.78%.
On to B1, for which the % of cells in the anti-mouse-IgGFc-FITC positive gate came to 33.9%.

The values are drawn from patent US20210206866A1 (EUCURE BEIJING BIOPHARMA, published 2021).
